# Data: patent US20240261333A1 (published 2024)
# T1: ATXN2L (UniProt Q8WWM7 1-1075)
# T1 construct: Endogenous protein found in the co-IP by mass spectrometry; also called NP_009176.2
# T1 sequence (looked up): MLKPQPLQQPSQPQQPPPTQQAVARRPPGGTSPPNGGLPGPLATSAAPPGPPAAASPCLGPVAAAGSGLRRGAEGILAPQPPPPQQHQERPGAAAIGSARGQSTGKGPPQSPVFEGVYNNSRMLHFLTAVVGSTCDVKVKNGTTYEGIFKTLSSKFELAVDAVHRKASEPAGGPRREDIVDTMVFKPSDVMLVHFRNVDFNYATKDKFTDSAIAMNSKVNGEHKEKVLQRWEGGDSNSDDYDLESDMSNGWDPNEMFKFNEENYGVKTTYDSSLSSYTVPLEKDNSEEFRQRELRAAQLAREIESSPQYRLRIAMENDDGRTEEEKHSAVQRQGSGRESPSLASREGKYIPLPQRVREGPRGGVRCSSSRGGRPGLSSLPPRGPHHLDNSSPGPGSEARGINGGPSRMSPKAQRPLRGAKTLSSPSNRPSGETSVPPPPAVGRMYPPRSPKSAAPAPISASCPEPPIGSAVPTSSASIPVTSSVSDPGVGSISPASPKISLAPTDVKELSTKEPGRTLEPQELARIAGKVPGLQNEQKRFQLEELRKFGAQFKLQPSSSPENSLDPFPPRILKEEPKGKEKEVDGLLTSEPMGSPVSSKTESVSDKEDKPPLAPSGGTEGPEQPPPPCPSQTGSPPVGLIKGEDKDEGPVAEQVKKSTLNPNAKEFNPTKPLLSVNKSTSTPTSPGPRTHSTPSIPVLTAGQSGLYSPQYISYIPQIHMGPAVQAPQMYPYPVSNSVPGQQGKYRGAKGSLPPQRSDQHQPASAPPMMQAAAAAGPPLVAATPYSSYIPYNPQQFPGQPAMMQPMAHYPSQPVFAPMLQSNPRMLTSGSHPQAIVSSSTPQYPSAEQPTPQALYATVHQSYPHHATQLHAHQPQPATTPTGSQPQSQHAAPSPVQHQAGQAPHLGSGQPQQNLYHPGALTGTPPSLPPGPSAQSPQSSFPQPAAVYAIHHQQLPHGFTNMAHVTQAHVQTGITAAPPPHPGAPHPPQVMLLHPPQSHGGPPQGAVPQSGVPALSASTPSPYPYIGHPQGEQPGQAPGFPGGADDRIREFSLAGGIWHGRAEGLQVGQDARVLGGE
# T2: EEF1A1 (UniProt P68104 2-462)
# T2 construct: Endogenous protein found in the co-IP by mass spectrometry; also called NP_001393.1
# T2 sequence (looked up): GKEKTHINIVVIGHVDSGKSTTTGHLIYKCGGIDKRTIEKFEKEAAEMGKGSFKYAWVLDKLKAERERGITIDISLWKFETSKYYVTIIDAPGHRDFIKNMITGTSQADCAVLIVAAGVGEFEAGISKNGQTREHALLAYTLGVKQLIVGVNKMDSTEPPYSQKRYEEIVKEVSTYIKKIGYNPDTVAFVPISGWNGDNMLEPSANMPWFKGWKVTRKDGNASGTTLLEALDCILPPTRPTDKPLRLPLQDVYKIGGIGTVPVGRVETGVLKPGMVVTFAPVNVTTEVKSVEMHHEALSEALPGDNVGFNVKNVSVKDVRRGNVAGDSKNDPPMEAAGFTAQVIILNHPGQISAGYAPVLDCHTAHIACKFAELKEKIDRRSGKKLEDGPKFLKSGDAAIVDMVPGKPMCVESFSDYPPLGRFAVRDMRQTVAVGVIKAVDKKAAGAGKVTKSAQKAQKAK
# Columns and labels:
# Test in all cases: co-IP with anti-FLAG, mass spectrometry; N-FLAG B3GNT2
# [1] = molecular target: RPS17 (UniProt P08708 2-135)
# Method: (§1) Cells were plated in 10-cm cell culture dishes and grown to 60-80% confluency. For each condition, two biological replicates were harvested for co-IP. Cells were washed with PBS and 4 mL of lysis buffer (20 mM HEPES, 1% Triton X-100, 150 mM NaCl, 1 mM EDTA, and 10% glycerol) containing protease inhibitor cocktail was added. Cells were scraped and lysate was incubated at 4° C. under rotary agitation for 1 h. Lysate was centrifuged at 14,000×g for 10 min at 4° C. Supernatant was transferred to a new tube and an aliquot was taken as the input. […] For Western blots, 10 μg/mL Chicken Anti-FLAG (Aves labs ET-DY100) and IgY control (R&D Systems AB-101-C) antibodies were biotinylated (Thermo Fisher Scientific 90407) and added to the respective conditions. Lysates with antibodies were incubated at 4° C. under rotary agitation overnight. For each mL of lysate, 50 μL of Pierce Protein A/G Magnetic Beads (Mass spectrometry; Thermo Fisher Scientific 88803) or Pierce Streptavidin Magnetic Beads (Western blot; Thermo Fisher Scientific 88817) was washed twice with lysis buffer. Lysates with antibodies were added to the beads and incubated at 4° C. under rotary agitation for 4 h. Beads were washed with lysis buffer 3 times and resuspended in lysis buffer for storage.
# (§2) Magnetic beads were resuspended in 100 mM Tris pH 7.8, reduced, alkylated and digested with trypsin at 37° ° C. overnight. This solution was subjected to solid phase extraction to concentrate the peptides and remove unwanted reagents followed by injection onto a Shimadzu HPLC with fraction collector. Eight fractions were collected and after concentration were injected on a Waters NanoAcquity HPLC equipped with a self-packed Aeris 3 μm C18 analytical column 0.075 mm by 20 cm, (Phenomenex). Peptides were eluted using standard reverse-phase gradients. The effluent from the column was analyzed using a Thermo Orbitrap Elite mass spectrometer (nanospray configuration) operated in a data dependent manner for 54 minutes. The resulting fragmentation spectra were correlated against the known database using Proteome Discover 1.4 (Thermo Fisher Scientific).
# [2] = molecular target: RPS11 (UniProt P62280 2-158)
# Method: as §1, §2
# [3] = molecular target: T1, ATXN2L
# Method: as §1, §2
# [4] = molecular target: T2, EEF1A1
# Method: as §1, §2
binder,measurement,setting,value
"N-terminal FLAG tagged B3GNT2 (enzyme, human, UniProt Q9NY97 1-397, looked up, FLAG-tagged ORF overexpressed in cells; bait of the anti-FLAG co-IP; also called N-FLAG B3GNT2; N-term FLAG; not shown: FLAG tag at the N-terminus) MSVGRRRIKLLGILMMANVFIYFIMEVSKSSSQEKNGKGEVIIPKEKFWKISTPPEAYWNREQEKLNRQYNPILSMLTNQTGEAGRLSNISHLNYCEPDLRVTSVVTGFNNLPDRFKDFLLYLRCRNYSLLIDQPDKCAKKPFLLLAIKSLTPHFARRQAIRESWGQESNAGNQTVVRVFLLGQTPPEDNHPDLSDMLKFESEKHQDILMWNYRDTFFNLSLKEVLFLRWVSTSCPDTEFVFKGDDDVFVNTHHILNYLNSLSKTKAKDLFIGDVIHNAGPHRDKKLKYYIPEVVYSGLYPPYAGGGGFLYSGHLALRLYHITDQVHLYPIDDVYTGMCLQKLGLVPEKHKGFRTFDIEEKNKNNICSYVDLMLVHSRKPQEMIDIWSQLQSAHLKC",co-IP mass spectrometry count,[1],5
same,co-IP mass spectrometry count,[2],13
same,co-IP mass spectrometry count,[3],5
same,co-IP mass spectrometry count,[4],13
